This note sets out measurements from the supplement of paper PMC12042874.

± gives the uncertainty stated by the source.

This series is described as follows: amyloid nucleation score (Sup35N fusion, yeast selection) (log enrichment); library NNK3; higher = more nucleation; inactive = no reads after selection. The procedure, abridged: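 The nucleation score is a DiMSum log enrichment of output over input reads, centred on the mode score of non-aggregating sequences. Sequences under 100 input reads were excluded, and reads came from Illumina sequencing of plasmid inserts. Psi-negative yeast expressing Sup35N fused to peptides of 20 random codons were induced with 100 μM copper sulfate for 24 hours and grown 7 days at 30°C on medium lacking adenine and uracil. Random libraries had three technical output replicates.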

For YEWSYCFNYLCHHYDTNWQR, the amyloid nucleation score turned out to be 2.96 ± 0.056.

For DICEIRTTIRAC, the amyloid nucleation score entry was “inactive”.

Regarding HYYINNTWMFKVYNRLLKRR, the amyloid nucleation score came out at 2.51 ± 0.057.

Consider TLYFYNTCLRQCKQYFIDFR, for which the amyloid nucleation score was 0.305 ± 0.16.

For the substance SKVACTRLDCMVFKCGTS, the amyloid nucleation score result is “inactive”.

KQVNQSRLMISGGNCRGRAN: the amyloid nucleation score entry is “inactive”.

For GISYNSV, the amyloid nucleation score result was “inactive”.

For YGSSHYPYNSY, the amyloid nucleation score entry was “inactive”.

On to ASYYVKEFVQREHSIYAN, for which the amyloid nucleation score result was “inactive”.

As to LFLYLCTVYNDFKELQPRNL, the amyloid nucleation score is 2.67 ± 0.07.

For the substance FFKYYG, the amyloid nucleation score entry is “inactive”.

Turning to ATRSLSDRPLEYCNNVDRKK, the amyloid nucleation score entry was “inactive”.

Consider LPLSFSL, for which the amyloid nucleation score result was “inactive”.

As to IFNWPSQTVLHIYKSAHVNM, the amyloid nucleation score stood at 2.35 ± 0.066.

ITWSFTVDMDALCCGPWNVR returned an amyloid nucleation score of 3.18 ± 0.078.

In the case of WFCNYRIMYKVSSIAPMLNP, the amyloid nucleation score entry is “inactive”.

In the case of VERRMTKVWTGARSPGRVFW, the amyloid nucleation score entry was “inactive”.

Turning to YFQLLVSLVSVFH, the amyloid nucleation score result is “inactive”.

The substance FTFGCSLCTMYTANSHFRGC displayed an amyloid nucleation score of 1.87 ± 0.061.

On to FLSVECLRAMTWCQLLDAGS, for which the amyloid nucleation score result is “inactive”.

Turning to TYCLKLMSQAAPTIEKT, the amyloid nucleation score entry was “inactive”.

PGLRVNYFRGESLDVYIVEE: the amyloid nucleation score stood at 2.14 ± 0.071.

In the case of FMGGIFAVFTRILVHSIWYS, the amyloid nucleation score result was “inactive”.

Take FMVILMRAISMSKIKSILYH: the amyloid nucleation score entry is “inactive”.

Turning to TNQQYGSLGFISTSGIILLF, the amyloid nucleation score result is “inactive”.

As to QRFVSIFPGI, the amyloid nucleation score entry is “inactive”.

For ILTNTIRGKVDSLRLFKTSW, the amyloid nucleation score entry is “inactive”.

On to LSLKRHLYLKVDASLTCVRT, for which the amyloid nucleation score entry is “inactive”.

Regarding RIGVTYWGICSLKLT, the amyloid nucleation score result was “inactive”.

For the substance LEAHESIRFCP, the amyloid nucleation score result is “inactive”.

Turning to MSCIFVSKKFLRLELGSSLY, the amyloid nucleation score result is “inactive”.

Take LFCGT: the amyloid nucleation score result is “inactive”.

Consider QSDHTLPMCRSSLRICVSGR, for which the amyloid nucleation score came out at 1.75 ± 0.07.

As to LCFAVSDCFNYKVLPILMGA, the amyloid nucleation score result was “inactive”.

On to SGKGE, for which the amyloid nucleation score entry was “inactive”.

With NNIVNSLYFEMGYGVN, the amyloid nucleation score result is “inactive”.

As to WSFCVSTREGSSNNFSRCGK, the amyloid nucleation score result is “inactive”.

In the case of FNRLDTNTTSGPRTGTTLEM, the amyloid nucleation score result is “inactive”.

Turning to LCDGCKNMFLLPLY, the amyloid nucleation score entry was “inactive”.

In the case of GVVSMVYINKWTRFWVPRPS, the amyloid nucleation score entry is “inactive”.

Regarding QQIFRDNCPVGSRFIFLSR, the amyloid nucleation score result is “inactive”.

The substance FLRKGYFNSTSFTDALGGNL registered an amyloid nucleation score of -1.26 ± 1.8.

Take YSCFVRHCVDRFVRNDSDQT: the amyloid nucleation score result is “inactive”.

Take DMWKFTRLLFFCDSKRCSAD: the amyloid nucleation score result was “inactive”.

Take TICGYI: the amyloid nucleation score entry was “inactive”.

Consider WHTDWRW, for which the amyloid nucleation score result was “inactive”.

Regarding IAQILDVQFSVHAIGVSRDM, the amyloid nucleation score result is “inactive”.

Consider IRSILW, for which the amyloid nucleation score result was “inactive”.

With HFLMFMRIIWVLRCPQVESP, the amyloid nucleation score entry is “inactive”.

Take VTCPNFQKIYRQGCYGGFDT: the amyloid nucleation score result is “inactive”.

RYCVFSLT: the amyloid nucleation score entry is “inactive”.

The substance RMIASAFFADCEKYVVNNLE came in with an amyloid nucleation score of 0.028 ± 0.43.

For the substance LVRCRVVWDLL, the amyloid nucleation score result is “inactive”.

As to RGAGSTESLTNGRGSIAIHR, the amyloid nucleation score entry was “inactive”.

With KWVCYHSWDYTCYHGEWYPS, the amyloid nucleation score entry was “inactive”.

For YRWQLRKKALFFFGKFSVHY, the amyloid nucleation score result is “inactive”.

As to NYLGWPDIKCHGYVDSFLFV, the amyloid nucleation score result was “inactive”.

As to NIARRTIKLTPFFSIFCVYS, the amyloid nucleation score was 3.2 ± 0.055.

Take GYDLFCGILMVDNSASIHTP: the amyloid nucleation score turned out to be 2.84 ± 0.063.

With SRPFICSPFQIWAFKFTPMN, the amyloid nucleation score entry is “inactive”.

For WPESIFKLRYRSGCCTEVND, the amyloid nucleation score result was “inactive”.

On to FDLGGLLPL, for which the amyloid nucleation score result was “inactive”.

In the case of TCTSQMLVWYFFPFLINMSW, the amyloid nucleation score result is “inactive”.

With MILLHVVCSVFPVRGFVVLA, the amyloid nucleation score entry was “inactive”.

Regarding WGLGETCLKLSWPCRN, the amyloid nucleation score entry was “inactive”.

On to ASNDDVG, for which the amyloid nucleation score result was “inactive”.

AYFLKEVNYMVKIYNLECRV: the amyloid nucleation score entry is “inactive”.

Turning to DCMSHLLF, the amyloid nucleation score result was “inactive”.

For the substance SFYFWSDAYACIKARRM, the amyloid nucleation score entry was “inactive”.

For the substance FYVTMTAASFPDFRHCVVND, the amyloid nucleation score turned out to be 0.01 ± 0.57.

In the case of LMIWVSDLSE, the amyloid nucleation score entry is “inactive”.

Consider KPPQNILVDMRLEGSMC, for which the amyloid nucleation score entry was “inactive”.

Consider NSSLY, for which the amyloid nucleation score entry was “inactive”.

For the substance CLGIGWFWVPWRLGVYSQMV, the amyloid nucleation score result was “inactive”.

For GLITWT, the amyloid nucleation score result was “inactive”.

As to FKCAADCVFLALYYMDGWKS, the amyloid nucleation score entry is “inactive”.

RLYLKTDVSDTRHRYMWLSE: the amyloid nucleation score entry is “inactive”.

Take DSYCGLRDEWITRWLGCRWM: the amyloid nucleation score result was “inactive”.

As to ITILT, the amyloid nucleation score entry was “inactive”.

As for NWSTIECMYMASVVLNARFG, the amyloid nucleation score entry was “inactive”.

Take YINQWCTCVT: the amyloid nucleation score entry is “inactive”.

In the case of CMGYRFC, the amyloid nucleation score entry was “inactive”.

Turning to INPRSYADLYYIRFNHWWLL, the amyloid nucleation score entry is “inactive”.

Turning to NLNYNLSPLTEYSVSD, the amyloid nucleation score entry is “inactive”.

With LGRANIHATIACM, the amyloid nucleation score result is “inactive”.

As for PHRFYYYWYSWCFILSNSCQ, the amyloid nucleation score entry was “inactive”.

For the substance RCLSNN, the amyloid nucleation score entry is “inactive”.

Regarding MSLLS, the amyloid nucleation score result was “inactive”.

As for RGFFSHWSFDVTHYVLVRTL, the amyloid nucleation score result was “inactive”.

As to RGWVPVTVIQWIMIDCQFKA, the amyloid nucleation score stood at 2.78 ± 0.054.

Turning to GISRLFVGMKKAVTWSAKER, the amyloid nucleation score result was “inactive”.

With ILYLITFAELCWKSRHWHLG, the amyloid nucleation score entry is “inactive”.

Regarding LDGGMNNRR, the amyloid nucleation score result was “inactive”.

With LCSRRSGMVRIWIVSSARLY, the amyloid nucleation score result was “inactive”.

In the case of DSLRWDYRL, the amyloid nucleation score result is “inactive”.

Turning to FGTHFIESSNVNNNTPVVSP, the amyloid nucleation score result was “inactive”.

For the substance FLCLSKGTGVAISKMSQN, the amyloid nucleation score entry was “inactive”.

Turning to FQPSSASPIGWIGMSAFDSW, the amyloid nucleation score entry was “inactive”.

Regarding IGISSGVTKICYGGTFKHMP, the amyloid nucleation score entry was “inactive”.

For TLMISPENIVRR, the amyloid nucleation score result was “inactive”.

In the case of RNKLFLINWLFYNCMTWAFH, the amyloid nucleation score result is “inactive”.

Consider RSLYMLVNLMYCGTEVRFIC, for which the amyloid nucleation score entry is “inactive”.

Turning to LREVRTAVSLGQMGRGLQA, the amyloid nucleation score result was “inactive”.

Take SWYVAFFNNSGFSCMGVFVG: the amyloid nucleation score entry is “inactive”.

For CVEAEDNFVLLKEGHAAWDV, the amyloid nucleation score result was “inactive”.

Regarding TLTYRSSQND, the amyloid nucleation score entry is “inactive”.

Consider SLPYCGVTSLSHSWVPMAIR, for which the amyloid nucleation score entry is “inactive”.

In the case of YCVSMANKLTCLCKGNSYPN, the amyloid nucleation score was 2.4 ± 0.061.

Regarding HKGALVWYFYCRANFADYLY, the amyloid nucleation score result is “inactive”.

Consider GVLLKVSR, for which the amyloid nucleation score result was “inactive”.

KAARTSQGNARCVYVKGVSN: the amyloid nucleation score entry is “inactive”.

For the substance NYWEIEYGVAGCSFLEGMRH, the amyloid nucleation score entry was “inactive”.

Consider NMQLVYDRMDE, for which the amyloid nucleation score entry is “inactive”.

With DFHSLKNDF, the amyloid nucleation score result is “inactive”.

Regarding TRFVTRNDMYLRYILVCRVA, the amyloid nucleation score result was “inactive”.

On to LYREFVWMEVCVCRWG, for which the amyloid nucleation score result is “inactive”.

Consider NLMRSILWVEYVQDCNCCSG, for which the amyloid nucleation score amounted to 2.54 ± 0.07.

In the case of HYVKPSSESRR, the amyloid nucleation score entry is “inactive”.

SAYYYGKY: the amyloid nucleation score entry is “inactive”.

Take RILVMVNKG: the amyloid nucleation score is 0.81 ± 0.17.

For QFRFSFASYFMRSVSIGWIG, the amyloid nucleation score entry was “inactive”.

With NLCRNDDSLFFCSS, the amyloid nucleation score result is “inactive”.

On to DERKNSIDSR, for which the amyloid nucleation score entry was “inactive”.

In the case of LNSYQDYSRGVLLKRKALLY, the amyloid nucleation score entry was “inactive”.

Consider FYFWLASLCSSDFSFYKVKL, for which the amyloid nucleation score result was “inactive”.

As for FLNSKGFTIAGYKNSKWGSR, the amyloid nucleation score result is “inactive”.

TYRVLE: the amyloid nucleation score result was “inactive”.

In turn, VWTRTWLLMTCHCNRFKDCS had an amyloid nucleation score of 1.67 ± 0.12.

VKYSLALVSGNRARGYRRCG: the amyloid nucleation score result was “inactive”.

GFDMRVGDRMYRDYGMMVGA: the amyloid nucleation score result is “inactive”.

GVSEAMCVILFYFYWKWVFP: the amyloid nucleation score entry was “inactive”.

Take GQPGQ: the amyloid nucleation score result is “inactive”.
